This is an account of results in patent US9289478B2, “Formulations of tumour-associated peptides binding to human leukocyte antigen (HLA) class I or class II molecules for vaccine” (IMMATICS BIOTECHNOLOGIES GMBH, priority 2008, dated 2016).

A short description of data set [1]: Stability of renal cell cancer vaccine test formulations at +25° C. and +40° C. by analytical HPLC assay. The note with it: especially at +40° C. Format: physicochemical. As for the experimental part:
Various lyophilisates were tested with respect to stability of each individual peptide at +25° C. and […] using an analytical HPLC assay.
The peptides according to the SEQ ID NOs: 1 to 10 were lyophilised without any excipients and by addition of mannitol and Poloxamer 188 (LUTROL F68®) or TWEEN 80®.
The following test formulations were produced and stability were assessed at +25° C. and +40° C. by analytical HPLC assay:
Initial HPLC measurements have been performed for each formulation before storage in a climate chamber. For this purpose, the content of two vials was completely dissolved in 30% acetic acid and measured by RP-HPLC by repeat determination. To assure comparability between the individual measurements, β-Naphtyl-alanine was used as internal standard and lyophilized together with the peptides.
After 7, 14, 21, and 28 days, another two vials were removed from the climate chamber to assess stability.
Data assessment was performed by repeat determination of one vial. For one time point and temperature, two independent vials were used to obtain four data points in total. These values have been taken to calculate the standard deviation shown as error bars in the relevant diagram.

The nature of data set [2]: HPLC-assay for in-use stability after reconstitution with 4.2% sodium hydrogen carbonate solution (Example 2, peptides SEQ ID NO 1-10). It is filed as physicochemical. The procedure: Resolubilization procedure: For clinical trials the above described formulation is dissolved in 700 μl sodium hydrogen carbonate (4.2%). Remove plastic cap from one vial. Unpack and remove sodium hydrogen carbonate (4.2%) from the refrigerator at least 30 min before resolubilization to bring them up to room temperature before injection. Prepare syringe and needle for reconstitution. Use aseptic technique to take 700 μL of diluent for reconstitution of the lyophilisate. To dissolve the lyophilisate, the vial and the diluent shall be shaken vigorously for 1 minute, check whether solution is clear, otherwise continue shaking for another minute until the solution is clear. 10 to 30 minutes after GM-CSF injection, use a new syringe to administer 500 μL reconstituted formulation i.d. at the same site. Administration has to occur within 1 h after reconstitution. Dissolved lyophilisate may be stored aseptically at room temperature for up to 1 hour following reconstitution.
However, a decrease of two specific peptides, i.e. IMA-CCN-001 and IMA-RGS-001 took place (see Table 6). As these peptides contain a cysteine residue, time-depending dimerization takes place.
Identity, purity and peptide content are determined by analytical RP-HPLC chromatography. Detection wavelength was 220 nm.

Where [3] appears, read: +mannitol/lutrol, 1 h after reconstitution.
The mark [4] stands for this setting: +mannitol/lutrol, 2 h after reconstitution.
[5] abbreviates: +mannitol/lutrol, 3 h after reconstitution.
[6] abbreviates: +mannitol/lutrol, 4 h after reconstitution.
The mark [7] stands for this setting: +mannitol/lutrol, 5 h after reconstitution.
The mark [8] stands for this setting: +mannitol/lutrol, 6 h after reconstitution.
[9] abbreviates: +mannitol/lutrol, Initial (starting value set to 100%).
The mark [10] stands for this setting: no excipients, 1 h after reconstitution.
Where [11] appears, read: no excipients, 2 h after reconstitution.
Where [12] appears, read: no excipients, 3 h after reconstitution.
Where [13] appears, read: no excipients, Initial (starting value set to 100%).

In the case of “SVASTITGV (listed as Homo sapiens) [ADF-001, Adipophilin tumour-associated peptide]”, the “peptide signal in formulations containing TWEEN 80” value in data set [1] is “increase of the signal”. Moreover, the “in-use stability, peptide by HPLC-assay” value in data set [2] (setting [3]) came to 99.6%; in data set [2] (setting [4]) it was 99.6%; in data set [2] (setting [5]), 100.7%; in data set [2] (setting [6]), 100.8%; in data set [2] (setting [7]), 99.9%; in data set [2] (setting [8]) it was 101.8%. In addition, the “in-use stability, peptide by HPLC-assay” value in data set [2] (setting [9]) was 100.0%; in data set [2] (setting [10]), 102.4%; in data set [2] (setting [11]), 102.4%; in data set [2] (setting [12]), 100.0%; in data set [2] (setting [13]), 100.0%.
Consider “LAALPHSCL (listed as Homo sapiens) [RGS-001, RGS-5 tumour-associated peptide]”, for which the “peptide signal in formulations containing TWEEN 80” value in data set [1] is listed as “enhanced degradation”. For the same sequence, the “in-use stability, peptide by HPLC-assay” value is 97.9% in data set [2] (setting [3]); 95.5% in data set [2] (setting [4]); 94.2% in data set [2] (setting [5]); 91.6% in data set [2] (setting [6]); 88.0% in data set [2] (setting [7]); 86.8% in data set [2] (setting [8]). Moreover, the “in-use stability, peptide by HPLC-assay” value was determined as 100.0% in data set [2] (setting [9]); 90.9% in data set [2] (setting [10]); 77.8% in data set [2] (setting [11]); 64.6% in data set [2] (setting [12]); 100.0% in data set [2] (setting [13]). Moreover, the “stability after reconstitution (in words)” value in data set [2] (Example 2 formulation, 4.2% sodium hydrogen carbonate) was “decrease”.
